Target: areca nut (AN) peroxidase (Areca catechu L.)
Assay: native gel or EMSA; native gel without heating or reducing agent; zymogram (20 mM guaiacol, 5 mM H2O2) and Coomassie staining; enzyme desalted with HEPES buffer (20 mM, pH 7.9); dimer to monomers

**Q.** areca nut (AN) peroxidase (enzyme) was tested. Which stoichiometry N did it give?
**A.** 2
